Measurements reported in patent US20160194407A1 (AstraZeneca / MedImmune, published 2016).
Substitutions are numbered along the chain they refer to.

What was measured:
[1] = target: T1, CD73 construct with chicken N- and C-terminal domain sequence and knocked-in human V144 and N185; assay: SPR ProteOn, His-tagged CD73 variant on HTG chip
T1 construct: K180 is conserved between chicken and human; also called chicken CD73 replaced with V144 and N185; knock-in
T1 chain: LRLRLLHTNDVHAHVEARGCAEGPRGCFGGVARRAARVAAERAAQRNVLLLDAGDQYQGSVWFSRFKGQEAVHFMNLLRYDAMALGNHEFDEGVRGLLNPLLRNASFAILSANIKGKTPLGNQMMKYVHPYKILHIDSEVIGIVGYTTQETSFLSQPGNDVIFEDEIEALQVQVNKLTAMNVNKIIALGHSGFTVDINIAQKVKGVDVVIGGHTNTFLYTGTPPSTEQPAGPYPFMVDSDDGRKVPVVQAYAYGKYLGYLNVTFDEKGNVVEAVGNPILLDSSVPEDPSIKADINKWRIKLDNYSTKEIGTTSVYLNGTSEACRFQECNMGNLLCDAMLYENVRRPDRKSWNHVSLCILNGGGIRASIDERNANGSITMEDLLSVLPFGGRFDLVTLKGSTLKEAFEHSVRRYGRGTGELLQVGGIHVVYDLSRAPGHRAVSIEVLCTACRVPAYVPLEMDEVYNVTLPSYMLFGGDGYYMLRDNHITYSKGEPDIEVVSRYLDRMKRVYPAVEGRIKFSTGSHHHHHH
Method: CD73 crude cell supernatant protein samples were diluted to 3 μg/ml in PBS, 0.005% Tween-20, pH 7.4 (BioRad) and immobilized to ˜400 RU on a HTG tris-NTA sensor chip (BioRad) pre-activated with 10 mM NiSO₄, 10 mM MES, pH 6.0 (BioRad). An equivalently diluted crude cell supernatant sample from non-transfected cells was included as a reference channel control. […] Antibody binding was measured at a flow rate of 100 μL/min with a 3 min association phase and 20 min dissociation phase. The sensor chip surface was regenerated between each run by an 800 s injection of 300 mM EDTA, pH 8.5 (BioRad) at a flow rate of 30 μL/min. Binding kinetics were analyzed using the ProteOn data analysis software. Double referencing was performed and, unless noted otherwise, a 1:1 Langmuir binding model was utilized to fit the data. […] Where noted, these variants were fit with a heterogenous antigen (2:1) model.

human CD73 V144K + N185G = target: T2, human CD73 V144K + N185G (human, UniProt P21589 27-553); assay: SPR ProteOn, CD73 variant on HTG chip
T2 chain: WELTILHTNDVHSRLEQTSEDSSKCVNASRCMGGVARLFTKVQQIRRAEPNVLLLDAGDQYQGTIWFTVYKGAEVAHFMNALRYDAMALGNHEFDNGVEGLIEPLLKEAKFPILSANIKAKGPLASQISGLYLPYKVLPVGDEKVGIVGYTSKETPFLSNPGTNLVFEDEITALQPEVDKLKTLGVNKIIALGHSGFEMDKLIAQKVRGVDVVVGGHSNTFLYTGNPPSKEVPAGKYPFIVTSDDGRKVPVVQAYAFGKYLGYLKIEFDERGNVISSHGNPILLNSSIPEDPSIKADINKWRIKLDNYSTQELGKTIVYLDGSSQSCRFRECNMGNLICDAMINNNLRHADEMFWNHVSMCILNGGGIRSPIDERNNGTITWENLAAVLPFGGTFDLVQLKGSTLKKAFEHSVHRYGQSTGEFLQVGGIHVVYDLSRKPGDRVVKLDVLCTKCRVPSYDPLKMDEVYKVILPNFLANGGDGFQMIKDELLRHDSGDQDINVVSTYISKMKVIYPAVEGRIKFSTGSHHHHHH

cynomolgus CD73 on cells = target: T3, cynomolgus CD73 on cells (cynomolgus); assay: flow cytometry on MK-1 cells, IgG1-TM
T3 construct: whole, on cells; also called native CD73 on MK-1 cells (cynomolgus)
Method: All flow cytometry experiments were run at 4 C and reagents were prepared in PBS/1% FBS buffer. 10,000 cells were incubated with test antibody in 50 uL volume for 4 hours. Cells were washed twice and incubated in 50 uL goat anti-human IgGFc-AlexaFluor647 conjugate for 15 minutes. Cells were washed, resuspended in buffer supplemented with Dapi, and analyzed on a flow cytometer. Dead cells, identified by high Dapi staining, were excluded from the analysis. For the determination of KD values, a plot of the median fluorescence intensity as a function of test antibody concentration was fitted nonlinearly using a one site binding isotherm model.

human CD73 K180A = target: T4, human CD73 K180A (human, UniProt P21589 27-553, K180A); assay: SPR ProteOn, His-tagged CD73 variant on HTG chip
T4 sequence: T2 chain with K144V, K180A, G185N, A350T

CD73 chimera KO_Linker = target: T5, CD73 chimera KO_Linker (human; chicken (Gallus gallus)); assay: SPR ProteOn, His-tagged CD73 variant on HTG chip
T5 construct: Human limits converted from mature numbering (+26); also called KO_292-310; linker region-swapped CD73
T5 chain: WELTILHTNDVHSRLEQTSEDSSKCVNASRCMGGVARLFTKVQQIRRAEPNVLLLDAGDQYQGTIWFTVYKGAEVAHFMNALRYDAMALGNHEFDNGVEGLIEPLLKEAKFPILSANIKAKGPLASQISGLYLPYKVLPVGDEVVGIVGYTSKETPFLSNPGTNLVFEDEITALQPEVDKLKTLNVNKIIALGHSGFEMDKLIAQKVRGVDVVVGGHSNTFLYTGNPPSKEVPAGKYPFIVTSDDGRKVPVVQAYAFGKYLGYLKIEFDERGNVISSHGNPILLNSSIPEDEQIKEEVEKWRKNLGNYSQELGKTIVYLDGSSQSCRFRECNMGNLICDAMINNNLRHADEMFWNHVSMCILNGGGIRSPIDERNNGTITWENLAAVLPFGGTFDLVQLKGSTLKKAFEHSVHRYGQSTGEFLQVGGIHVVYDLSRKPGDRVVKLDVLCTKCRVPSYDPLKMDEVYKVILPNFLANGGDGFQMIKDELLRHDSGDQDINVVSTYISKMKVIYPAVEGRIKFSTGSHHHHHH

[2] = target: T6, cynomolgus CD73 extracellular domain (ECD) (cynomolgus); assay: SPR (Proteon), IgG1-TM
T6 construct: extracellular domain; also called Cynomolgus CD73 ECD; cyno CD73 (SPR Proteon)

B1: MEDI9447 (antibody, V domains shown)
VH: EVQLLESGGGLVQPGGSLRLSCAASGFTFSSYAYSWVRQAPGKGLEWVSAISGSGGRTYYADSVKGRFTISRDNSKNTLYLQMNSLRAEDTAVYYCARLGYGRVDEWGRGTLVTVSS
VL: QSVLTQPPSASGTPGQRVTISCSGSLSNIGRNPVNWYQQLPGTAPKLLIYLDNLRLSGVPDRFSGSKSGTSASLAISGLQSEDEADYYCATWDDSHPGWTFGGGTKLTVL
notes: also called clone 10.3 antibody; 73combo3
- Kd [1]: 0.079 nM
- binding result (human CD73 V144K + N185G): no binding
- Kd (cynomolgus CD73 on cells): 0.084 nM
- koff (human CD73 K180A): 0.000154 s⁻¹
- kon (human CD73 K180A): 3.45e+06 M⁻¹ s⁻¹
- kon (CD73 chimera KO_Linker): 5.57e+06 M⁻¹ s⁻¹
- Kd [2]: 0.007 nM
